Results: US20190309074A1, “DEGLYCOSYLATED ANTIBODY SPECIFICALLY BINDING TO CLEC14A AND USES THEREOF” (WOORI TECHNOLOGIES CORPORATION, priority 2016, published 2019)

T1: hclec14a-CTLD-Fc (human, UniProt Q86T13 31-172, limits assumed)
T1 construct: domain: C-type lectin-like domain (CTLD); also called human clec14a-CTLD-Fc; human CTLD; not shown: Fc
T1 sequence (looked up): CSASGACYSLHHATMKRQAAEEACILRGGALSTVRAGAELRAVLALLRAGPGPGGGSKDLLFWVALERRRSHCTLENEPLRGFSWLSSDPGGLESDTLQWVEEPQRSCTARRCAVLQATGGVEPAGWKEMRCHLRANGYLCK

T2: mclec14a-CTLD-Fc (mouse, UniProt Q8VCP9 31-172, limits assumed)
T2 construct: domain: C-type lectin-like domain (CTLD); also called mouse clec14a-CTLD-Fc; mouse CTLD; not shown: Fc
T2 sequence (looked up): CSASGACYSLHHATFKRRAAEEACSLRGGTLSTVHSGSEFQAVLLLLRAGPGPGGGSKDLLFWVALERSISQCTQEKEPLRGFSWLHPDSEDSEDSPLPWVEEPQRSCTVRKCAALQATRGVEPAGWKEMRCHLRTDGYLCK

T3: mouse CLEC14a on mouse aortic endothelial cells (MAECs) (mouse, UniProt Q8VCP9 22-459)
T3 construct: whole, on cells
T3 sequence (looked up): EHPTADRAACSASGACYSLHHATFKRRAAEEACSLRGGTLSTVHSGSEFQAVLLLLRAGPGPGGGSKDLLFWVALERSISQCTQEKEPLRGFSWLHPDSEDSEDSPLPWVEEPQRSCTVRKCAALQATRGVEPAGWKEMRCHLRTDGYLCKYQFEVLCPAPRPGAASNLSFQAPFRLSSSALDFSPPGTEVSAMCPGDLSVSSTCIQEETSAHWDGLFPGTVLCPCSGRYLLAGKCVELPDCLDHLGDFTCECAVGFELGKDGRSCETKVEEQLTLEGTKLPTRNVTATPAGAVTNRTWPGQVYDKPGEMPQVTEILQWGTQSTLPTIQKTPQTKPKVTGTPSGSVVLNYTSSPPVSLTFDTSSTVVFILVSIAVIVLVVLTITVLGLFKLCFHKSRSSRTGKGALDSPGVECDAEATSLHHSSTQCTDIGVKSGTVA

T4: human CLEC14a on human umbilical vein endothelial cells (HUVECs) (human, UniProt Q86T13 22-490)
T4 construct: whole, on cells; also called CLEC14a on HUVEC surfaces
T4 sequence (looked up): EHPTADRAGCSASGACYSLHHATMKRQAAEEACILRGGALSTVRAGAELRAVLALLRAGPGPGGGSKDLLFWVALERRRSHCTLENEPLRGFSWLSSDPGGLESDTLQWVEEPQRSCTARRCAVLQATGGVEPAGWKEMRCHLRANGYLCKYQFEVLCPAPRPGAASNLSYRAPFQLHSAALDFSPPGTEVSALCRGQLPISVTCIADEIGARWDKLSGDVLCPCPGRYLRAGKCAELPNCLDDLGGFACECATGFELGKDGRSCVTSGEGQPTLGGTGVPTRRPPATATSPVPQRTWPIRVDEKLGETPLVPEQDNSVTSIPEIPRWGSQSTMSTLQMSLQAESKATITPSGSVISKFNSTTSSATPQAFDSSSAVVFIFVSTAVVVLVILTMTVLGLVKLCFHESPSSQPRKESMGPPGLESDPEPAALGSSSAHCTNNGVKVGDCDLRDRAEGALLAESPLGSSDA


Key:
HUVECs = test: HUVEC viability (cell counting Kit-8); format: cell-based, human; settings: 2 days
Procedure: In order to evaluate effects of deglyco C1 IgG on toxicity of endothelial cells, after treatment with deglyco C1 IgG, viability of HUVECs was measured. Viability was measured in accordance with the manufacturer's manual through cell counting Kit-8 (#CK04-13, Dojindo Laboratories, Kumamoto, Japan).

hclec14a-CTLD-Fc = target: T1, hclec14a-CTLD-Fc; test: ELISA on hclec14a-CTLD-Fc
mclec14a-CTLD-Fc = target: T2, mclec14a-CTLD-Fc; test: ELISA on mclec14a-CTLD-Fc
GFP-transfected HUVECs = test: IncuCyte real-time VEGF-dependent angiogenesis assay; format: cell-based, human; settings: for anti-angiogenesis activity (tube length and branch point): 20 ug/ml; for changes in tube length (progression of angiogenesis): representative images
Procedure: In order to identify inhibitory activity of optimized candidate antibodies against angiogenesis dependent upon VEGF, which is a key factor of angiogenesis, anti-angiogenesis activity was comparatively analyzed using an IncuCyte FLR live content imaging system (Essen Bioscience Inc.) providing real-time analysis of angiogenesis. First, GFP-transfected HUVECs were seeded on a […] plate, were treated with 36 types of antibodies at a concentration of 20 ug/ml and in vitro efficacy was then compared. At this time, optimized antibodies were comparatively analyzed in terms of efficacy with parental IgG (parent antibody: clone 1 of WO 2013/187556), deglyco C1 and bevacizumab (Avastin) as positive control groups.

HUVEC cells = test: EGM-dependent HUVEC tube formation; format: cell-based, human; settings: 20 ug/ml
Source text: EGM is a type of complex including a variety of angiogenesis factors, which has been used to induce strong angiogenesis using vascular endothelial cells.

HUVEC migration = test: IncuCyte HUVEC migration assay; format: cell-based, human; settings: 20 ug/ml
Procedure: In order to analyze in vitro efficacies of the optimized candidate antibodies on endothelial migration, which is another function of angiogenesis, HUVEC migration assay was conducted using an IncuCyte FLR live content imaging system (Essen Bioscience Inc). At this time, regarding a wound, a uniform wound was created using a wound maker commercially available from Incucyte and was treated with 20 ug/ml of respective antibodies, and inhibitory activity against migration was comparatively evaluated.

[1] = system: HUVECs (human umbilical vein endothelial cells); test: flow cytometry cross-species reactivity; format: cell-based; settings: 20 ug/ml
Procedure: (§1) In order to identify cross-species reactivity of the optimized antibodies, HUVECs (human umbilical vein endothelial cells) and MAECs (mouse aortic endothelial cells) were each cultured, the two cell groups were treated with 20 ug/ml of the parent antibody (original C1), deglyco C1, and clones 1, 13 and 16, and whether or not binding ability exists on the surface of two types of cells was identified by flow cytometry.

[2] = system: MAECs (mouse aortic endothelial cells); test: flow cytometry cross-species reactivity; format: cell-based; settings: 20 ug/ml
Procedure: as §1

[3] = target: T3, mouse CLEC14a on mouse aortic …; test: flow cytometry on MAEC
Procedure: as §1

[4] = target: T4, human CLEC14a on human umbilical vein …; test: flow cytometry on HUVEC
Procedure: as §1

Molecule	binding result (hclec14a-CTLD-Fc)	binding result (mclec14a-CTLD-Fc)	suppression of EGM-dependent tube formation (HUVEC cells)	endothelial migration inhibitory activity (HUVEC migration)	binding to HUVEC surface [1]	binding to MAEC surface [2]	other results
O=c1[nH]cc(F)c(=O)[nH]1 [Opti 5-FU, 5-fluorouracil, reference compound]	–	–	–	–	–	–	viability of HUVECs (HUVECs): significantly reduced viability
deglyco C2 IgG (antibody, V domains shown, IgG expressed in HEK293 cells; also called Deg C2) VH: EVQLVESGGGLVQPGGSLRLSCAVSGFTFSGYDMSWIRQAPGKGLEWVAGIYPDGGNTYYADSVKGRFTISRDDSKNTFYLQMNSLRAEDTAVYYCARGATWWVLGPFDYWGQGTLVTVSS VL: DIQLTQSPSSLSASVGDRVTITCTGSSSNIGATAVTWYQQKPGKAPKLLIYADSHRPSGVPSRFSGSGSGTDFTLTISSLQPEDFATYYCGAWDDSLSGYVFGQGTKVEIKR	binds	binds	–	–	–	–	–
Opti 1: IgG, heavy chain CDR3 GAATKVLGKFDC (SEQ ID No: 25), VL of Deg C1 (antibody, V domains shown) VH: EVQLVESGGGLVQPGGSLRLSCAVSGFTFSGYDMSWIRQAPGKGLEWVAGIYPDGGNTYYADSVKGRFTISRDDSKNTFYLQMNSLRAEDTAVYYCARGAATKVLGKFDCWGQGTLVTVSS VL: DIQLTQSPSSLSASVGDRVTITCTGSSSNIGRCGVTWYQQKPGKAPKLLIYADSHRPSGVPSRFSGSGSGTDFTLTISSLQPEDFATYYCGAWDDSLSGYVFGQGTKVEIKR	–	–	efficiently suppressing angiogenesis	same endothelial migration inhibitory activity as parent antibody (original C1), deglyco C1 IgG, and Avastin	had cross-species reactivity	had cross-species reactivity	anti-angiogenesis activity (tube length and branch point) (GFP-transfected HUVECs): potent efficacy; changes in tube length (progression of angiogenesis) (GFP-transfected HUVECs): same efficacy as Suramin and Avastin
Opti 16: IgG, heavy chain CDR3 GARRQVLGCFDF (SEQ ID No: 40), VL of Deg C1 (antibody, V domains shown) VH: EVQLVESGGGLVQPGGSLRLSCAVSGFTFSGYDMSWIRQAPGKGLEWVAGIYPDGGNTYYADSVKGRFTISRDDSKNTFYLQMNSLRAEDTAVYYCARGARRQVLGCFDFWGQGTLVTVSS VL: DIQLTQSPSSLSASVGDRVTITCTGSSSNIGRCGVTWYQQKPGKAPKLLIYADSHRPSGVPSRFSGSGSGTDFTLTISSLQPEDFATYYCGAWDDSLSGYVFGQGTKVEIKR	–	–	efficiently suppressing angiogenesis	same endothelial migration inhibitory activity as parent antibody (original C1), deglyco C1 IgG, and Avastin	had cross-species reactivity	had cross-species reactivity	anti-angiogenesis activity (tube length and branch point) (GFP-transfected HUVECs): potent efficacy; changes in tube length (progression of angiogenesis) (GFP-transfected HUVECs): same efficacy as Suramin and Avastin
Opti 13 (antibody, V domains shown, IgG from HEK293 cells; also called clone 13; optimized antibody clone 13) VH: EVQLVESGGGLVQPGGSLRLSCAVSGFTFSGYDMSWIRQAPGKGLEWVAGIYPDGGNTYYADSVKGRFTISRDDSKNTFYLQMNSLRAEDTAVYYCARGAMEQVLGPFDLWGQGTLVTVSS VL: DIQLTQSPSSLSASVGDRVTITCTGSSSNIGRCGVTWYQQKPGKAPKLLIYADSHRPSGVPSRFSGSGSGTDFTLTISSLQPEDFATYYCGAWDDSLSGYVFGQGTKVEIKR	–	–	–	–	–	–	binding result [3]: binds; binding result [4]: binds
Opti 13: IgG, heavy chain CDR3 GAMEQVLGPFDL (SEQ ID No: 37), VL of Deg C1 (antibody, V domains shown) VH: EVQLVESGGGLVQPGGSLRLSCAVSGFTFSGYDMSWIRQAPGKGLEWVAGIYPDGGNTYYADSVKGRFTISRDDSKNTFYLQMNSLRAEDTAVYYCARGAMEQVLGPFDLWGQGTLVTVSS VL: DIQLTQSPSSLSASVGDRVTITCTGSSSNIGRCGVTWYQQKPGKAPKLLIYADSHRPSGVPSRFSGSGSGTDFTLTISSLQPEDFATYYCGAWDDSLSGYVFGQGTKVEIKR	–	–	efficiently suppressing angiogenesis	same endothelial migration inhibitory activity as parent antibody (original C1), deglyco C1 IgG, and Avastin	had cross-species reactivity	had cross-species reactivity	–
deglyco C4 IgG (antibody, V domains shown, IgG expressed in HEK293 cells; also called Deg C4) VH: EVQLVESGGGLVQPGGSLRLSCAVSGFTFSGYDMSWIRQAPGKGLEWVAGIYPDGGNTYYADSVKGRFTISRDDSKNTFYLQMNSLRAEDTAVYYCARGATWWVLGPFDYWGQGTLVTVSS VL: DIQLTQSPSSLSASVGDRVTITCTGSSSNIGAVVVTWYQQKPGKAPKLLIYADSHRPSGVPSRFSGSGSGTDFTLTISSLQPEDFATYYCGAWDDSLSGYVFGQGTKVEIKR	binds	binds	–	–	–	–	–
deglyco C3 IgG (antibody, V domains shown, IgG expressed in HEK293 cells; also called Deg C3) VH: EVQLVESGGGLVQPGGSLRLSCAVSGFTFSGYDMSWIRQAPGKGLEWVAGIYPDGGNTYYADSVKGRFTISRDDSKNTFYLQMNSLRAEDTAVYYCARGATWWVLGPFDYWGQGTLVTVSS VL: DIQLTQSPSSLSASVGDRVTITCTGSSSNIGWSNVTWYQQKPGKAPKLLIYADSHRPSGVPSRFSGSGSGTDFTLTISSLQPEDFATYYCGAWDDSLSGYVFGQGTKVEIKR	binds	binds	–	–	–	–	–
Opti 1 (antibody, V domains shown, IgG from HEK293 cells; also called optimized antibody clone 1) VH: EVQLVESGGGLVQPGGSLRLSCAVSGFTFSGYDMSWIRQAPGKGLEWVAGIYPDGGNTYYADSVKGRFTISRDDSKNTFYLQMNSLRAEDTAVYYCARGAATKVLGKFDCWGQGTLVTVSS VL: DIQLTQSPSSLSASVGDRVTITCTGSSSNIGRCGVTWYQQKPGKAPKLLIYADSHRPSGVPSRFSGSGSGTDFTLTISSLQPEDFATYYCGAWDDSLSGYVFGQGTKVEIKR	–	–	–	–	–	–	binding result [3]: binds; binding result [4]: binds
